Results: patent publication US7029857B1, “Processes for obtaining compounds employing SNORF72 receptors” (H. Lundbeck A/S, priority 1999, dated 2006)
Several values for one entry are separate records, joined by “and”; a condition that tells them apart may be missing. Equal entries are not always repeated. No end group written: not given here.

What was measured:
SNORF62 [1] = biological target: T1, SNORF62 (Homo sapiens, UniProt Q9HB89); assay: Calcium-activated Cl- currents in Xenopus oocytes injected with SNORF62 mRNA; type: cell-based; design: from linearized plasmids or PCR products containing the complete coding region of the gene; expressed in transfected cells; host or cells: Xenopus laevis oocytes injected with in vitro transcribed SNORF62 mRNA; conditions: 1 μM peptide, n=3
T1 sequence (Q9HB89 1-426): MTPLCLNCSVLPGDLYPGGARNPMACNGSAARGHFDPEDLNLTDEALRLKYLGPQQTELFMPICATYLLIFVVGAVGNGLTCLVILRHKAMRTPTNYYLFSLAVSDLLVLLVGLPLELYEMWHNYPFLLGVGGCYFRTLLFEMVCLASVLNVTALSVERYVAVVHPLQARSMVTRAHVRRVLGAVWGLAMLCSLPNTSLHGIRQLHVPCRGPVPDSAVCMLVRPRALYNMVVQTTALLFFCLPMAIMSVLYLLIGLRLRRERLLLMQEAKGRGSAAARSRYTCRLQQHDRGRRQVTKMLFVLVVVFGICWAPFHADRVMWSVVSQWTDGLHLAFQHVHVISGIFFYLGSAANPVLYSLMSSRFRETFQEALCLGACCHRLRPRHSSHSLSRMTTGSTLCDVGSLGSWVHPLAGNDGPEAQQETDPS
Protocol: Heterologous expression of GPCRs in Xenopus oocytes has been widely used to determine the identity of signaling pathways activated by agonist stimulation (Gundersen et al., 1983; Takahashi et al., 1987). Activation of the phospholipase C (PLC) pathway is assayed by applying a test compound in ND96 solution to oocytes previously injected with mRNA for the human SNORF62 and observing inward currents at a holding potential of approximately −80 mV. The appearance of currents that reverse at −25 mV and display other properties of the Ca^++-activated Cl^− channel is indicative of receptor-acitivation of PLC and release of IP3 and intracellular Ca^++.
In the present invention, oocytes were harvested from Xenopus laevis and injected with mRNA transcripts as previously described (Quick and Lester, 1994; Smith et al., 1997). SNORF62 mRNA transcript was synthesized using the T7 polymerase (“Message Machine”, Ambion) from linearized plasmids or PCR products containing the complete coding region of the gene. Oocytes were injected with 1–50 ng synthetic receptor RNA and incubated for 3–8 days at 17° C. Currents were recorded under dual electrode voltage clamp (Axon Instruments Inc.) with 3 M KCl-filled glass microelectrodes having resistances of 1–2 Mohm. Unless otherwise specified, oocytes were voltage clamped at a holding potential of −80 mV. […]

SNORF72 = biological target: T2, SNORF72 (Homo sapiens, UniProt Q9GZQ4, A395T); assay: Intracellular Ca2+ release (FLIPR) in SNORF72-transfected COS-7 cells; type: cell-based; conditions: stimulation of Ca2+ release, SNORF72-transfected COS-7 cells, n = 2-7 (Table 1A)
T2 construct: expressed in transfected cells; host or cells: COS-7 (transient, DEAE-dextran)
Protocol: (§1) A typical protocol for the DEAE-dextran method as applied to COS-7 and HEK293 cells is described as follows. Cells to be used for transfection are split 24 hours prior to the transfection to provide flasks which are 70–80% confluent at the time of transfection. Briefly, 8 μg of receptor DNA plus 8 μg of any additional DNA needed (e.g. Gα protein expression vector, reporter construct, antibiotic resistance marker, mock vector, etc.) are added to 9 ml of complete DMEM plus DEAE-dextran mixture (10 mg/ml in PBS). Cells plated into a T225 flask (sub-confluent) are washed once with PBS and the DNA mixture is added to each flask. The cells are allowed to incubate for 30 minutes at 37° C., 5% CO2. Following the incubation, 36 ml of complete DMEM with 80 μM chloroquine is added to each flask and allowed to incubate an additional 3 hours. The medium is then aspirated and 24 ml of complete medium containing 10% DMSO for exactly 2 minutes and then aspirated. The cells are then washed 2 times with PBS and 30 ml of complete DMEM added to each flask. The cells are then allowed to incubate over night. The next day the cells are harvested by trypsinization and reseeded into 96 well plates.
(§2) Cells expressing the receptor of interest are plated into clear, flat-bottom, black-walled 96-well plates (Costar) at a density of 80,000–150,000 cells per well and allowed to incubate for 48 hr at 5% CO2, 37° C. The growth medium is aspirated and 100 μL of loading medium containing Fluo-3 dye is added to each well. The loading medium contains: 20 mM HEPES (Sigma), 0.1% BSA (Sigma), dye/pluronic acid mixture (e.g. 1 mM Fluo-3/AM (Molecular Probes) and 10% pluronic acid (Molecular Probes) mixed immediately before use), and 2.5 mM probenecid (Sigma)(prepared fresh). The cells are allowed to incubate for about 1 hour at 5% CO2, 37° C.
(§3) The compounds of interest are diluted in wash buffer (Hank's BSS (without phenol red), 20 mM HEPES, 2.5 mM probenecid) to a 4× final concentration and aliquoted into a clear v-bottom plate (Nunc). Following the dye incubation, the cells are washed 4 times to remove excess dye using a Denley plate washer. 100 μL final volume of wash buffer is then added to each cell well. Compounds are added to the cell plates and responses are measured using the FLIPR™ instrument. The data are then collected and analyzed using the FLIPR™ software and Graphpad Prism.
(§4) COS-7 cells were transiently transfected with SNORF62, SNORF72 or vector DNA (mock) as described in Materials and Methods.

SNORF62 [2] = biological target: T1, SNORF62; assay: Intracellular Ca2+ release (FLIPR) in SNORF62-transfected COS-7 cells; type: cell-based; design: The SNORF62 cDNA codes for a protein of 426 amino acids; expressed in transfected cells; host or cells: COS-7 (transient, DEAE-dextran); conditions: stimulation of Ca2+ release, SNORF62-transfected COS-7 cells, n = 2-7 (Table 1A)
Protocol: as §1, §2, §3, §4

SNORF62 [3] = biological target: T1, SNORF62; assay: Displacement of [125I]rat NMU-23 binding in SNORF62-transfected COS-7 membranes; design: The SNORF62 cDNA codes for a protein of 426 amino acids; expressed in transfected cells; host or cells: COS-7 (transient, DEAE-dextran); conditions: binding affinity, SNORF62-transfected COS-7 cells (Table 1A); read-out: SNORF62 Avg Ki
Protocol: The specifics of preparing such cell membranes may in some cases be determined by the nature of the ensuing assay but typically involve harvesting whole cells and disrupting the cell pellet by sonication in ice cold buffer (e.g. 20 mM Tris HCl, mM EDTA, pH 7.4 at 4° C.). The resulting crude cell lysate is cleared of cell debris by low speed centrifugation at 200×g for 5 min at 4° C. The cleared supernatant is then centrifuged at 40,000×g for 20 min at 4° C., and the resulting membrane pellet is washed by suspending in ice cold buffer and repeating the high speed centrifugation step. The final washed membrane pellet is resuspended in assay buffer. Protein concentrations are determined by the method of Bradford (1976) using bovine serum albumin as a standard. The membranes may be used immediately or frozen for later use.
(§5) Radioligand binding assays were performed by diluting membranes prepared from cells expressing the receptor in 50 mM Tris buffer (pH=7.4 at 0° C.) containing 0.1% bovine serum albumin (Sigma), aprotinin (0.005 mg/ml, Boehringer Mannheim) and bestatin (0.1 mM, Sigma) as protease inhibitors. The final protein concentration in the assay was 12–40 μg/ml. […] The bound ligand was separated from free by filtration through GF/B filters presoaked in 0.5% polyethyleneimine (PEI), using a Tomtec (Wallac) vacuum filtration device. After addition of Ready Safe (Beckman) scintillation fluid, bound radioactivity was quantitated using a Trilux (Wallac) scintillation counter (approximately 40% counting efficiency of bound counts). Data was fit to non-linear curves using GraphPad Prism.
In this manner, agonist or antagonist compounds that bind to the receptor may be identified as they inhibit the binding of the labeled ligand to the membrane protein of cells expressing the said receptor. Non-specific binding was defined as the amount of radioactivity remaining after incubation of membrane protein in the presence of 100 nM of the unlabeled peptide corresponding to the radioligand used. In equilibrium saturation binding assays membrane preparations or intact cells transfected with the receptor are incubated in the presence of increasing concentrations of the labeled compound to determine the binding affinity of the labeled ligand.

human SNORF62 receptor [4] = biological target: T3, human SNORF62 receptor (human, UniProt Q9HB89 1-426); assay: displacement of [125I]rat NMU-23, membranes of SNORF62-transfected COS-7 cells
T3 construct: also called hSNORF62; NMU receptor
T3 sequence: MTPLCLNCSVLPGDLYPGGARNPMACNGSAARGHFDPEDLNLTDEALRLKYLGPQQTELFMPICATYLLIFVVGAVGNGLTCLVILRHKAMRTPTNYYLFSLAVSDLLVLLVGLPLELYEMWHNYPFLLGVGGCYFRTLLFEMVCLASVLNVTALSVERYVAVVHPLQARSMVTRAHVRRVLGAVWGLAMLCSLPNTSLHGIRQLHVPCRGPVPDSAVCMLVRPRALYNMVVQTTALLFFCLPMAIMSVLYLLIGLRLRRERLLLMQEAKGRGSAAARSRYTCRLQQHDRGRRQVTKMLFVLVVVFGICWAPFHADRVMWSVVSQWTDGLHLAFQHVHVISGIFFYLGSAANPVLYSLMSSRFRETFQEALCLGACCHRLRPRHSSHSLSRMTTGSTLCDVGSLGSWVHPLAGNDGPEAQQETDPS
Protocol: as §5, with “µg/ml.” for “μg/ml.”

human SNORF62 receptor [5] = biological target: T3, human SNORF62 receptor; assay: cell-based or functional assay
human SNORF72 receptor [6] = biological target: T4, human SNORF72 receptor (human, UniProt Q9GZQ4 1-415); assay: displacement of [125I]rat NMU-23 (0.05-0.1 nM), membranes of SNORF72-transfected COS-7 cells, n=2
T4 construct: Full-length receptor (longest open reading frame), transiently expressed in COS-7 cells (whole cells or membranes prepared from them); also called hSNORF72; NMU receptor
Protocol: as §5, with “µg/ml.” for “μg/ml.”

human SNORF62 receptor [7] = biological target: T3, human SNORF62 receptor; assay: cell-based or functional assay; remark: listed apart in the source
human SNORF62 receptor [8] = biological target: T3, human SNORF62 receptor; assay: cell-based or functional assay; remark: listed apart in the source
human SNORF72 receptor [9] = biological target: T4, human SNORF72 receptor; assay: cell-based or functional assay
human SNORF62 receptor [10] = biological target: T3, human SNORF62 receptor; assay: displacement of [125I]rat NMU-23 (0.05-0.1 nM), membranes of SNORF62-transfected COS-7 cells, n=2
Protocol: as §5, with “µg/ml.” for “μg/ml.”

human SNORF72 receptor [11] = biological target: T4, human SNORF72 receptor; assay: saturation radioligand binding, membranes of SNORF72-transfected COS-7 cells, n=2
Protocol: as §5, with “µg/ml.” for “μg/ml.”

human SNORF62 receptor [12] = biological target: T3, human SNORF62 receptor; assay: saturation radioligand binding, membranes of SNORF62-transfected COS-7 cells, n=2
Protocol: as §5, with “µg/ml.” for “μg/ml.”

human SNORF72 receptor [13] = biological target: T4, human SNORF72 receptor; assay: cell-based or functional assay; remark: listed apart in the source
human SNORF72 receptor [14] = biological target: T4, human SNORF72 receptor; assay: displacement of [125I]rat NMU-23, membranes of SNORF72-transfected COS-7 cells
Protocol: as §5, with “µg/ml.” for “μg/ml.”

T4 sequence (Q9GZQ4 other isoform, or with tags, fused parts or gaps): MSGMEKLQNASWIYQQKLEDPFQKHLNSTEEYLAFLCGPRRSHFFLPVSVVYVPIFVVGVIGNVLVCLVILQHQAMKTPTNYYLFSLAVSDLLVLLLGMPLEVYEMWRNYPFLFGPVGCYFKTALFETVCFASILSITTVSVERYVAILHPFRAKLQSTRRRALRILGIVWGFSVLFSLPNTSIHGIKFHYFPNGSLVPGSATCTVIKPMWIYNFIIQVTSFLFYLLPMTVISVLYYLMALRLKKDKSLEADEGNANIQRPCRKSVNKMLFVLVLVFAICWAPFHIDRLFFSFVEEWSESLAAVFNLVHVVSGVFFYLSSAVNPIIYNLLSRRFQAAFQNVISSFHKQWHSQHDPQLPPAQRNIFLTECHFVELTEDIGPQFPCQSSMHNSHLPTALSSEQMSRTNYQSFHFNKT
T2 sequence (Q9GZQ4 whole entry A395T): as the sequence (Q9GZQ4 other isoform, or with tags, fused parts or gaps) above

Row | Molecule | current amplitude (SNORF62 [1]) [nA] | EC50 (SNORF72) [nM] | EC50 (SNORF62 [2]) [nM] | Ki (SNORF62 [3]) [nM] | Ki (human SNORF62 receptor [4]) [nM] | EC50, release of IP second messengers in SNORF62-transfected COS-7 cells (human SNORF62 receptor [5]) [nM] | release of IP second messengers, fold above basal, in SNORF62-transfected COS-7 cells (human SNORF62 receptor [5]) [fold] | pKi (human SNORF72 receptor [6]) | AVG EC50 (nM), stimulation of Ca++ release in SNORF62-transfected COS-7 cells (FLIPR) (human SNORF62 receptor [7]) [nM] | Avg EC50 (nM), stimulation of Ca2+ release in SNORF62-transfected COS-7 cells (human SNORF62 receptor [8]) [nM] | Avg EC50 (nM), stimulation of Ca2+ release in SNORF72-transfected COS-7 cells (human SNORF72 receptor [9]) [nM] | pKi (human SNORF62 receptor [10]) | Kd (human SNORF72 receptor [11]) | Kd (human SNORF62 receptor [12]) | EC50, Ca2+ release in SNORF72-transfected COS-7 cells (human SNORF72 receptor [13]) | Ki (human SNORF72 receptor [14]) [nM]
1 | CC[C@H](C)[C@H](NC(=O)[C@@H]1CCCN1C(=O)CNC(=O)[C@H](CCC(N)=O)NC(=O)[C@H](Cc1ccccc1)NC(=O)[C@H](CCC(=O)O)NC(=O)[C@H](CCC(=O)O)NC(=O)[C@H](CC(=O)O)NC(=O)[C@@H](NC(=O)[C@H](CCCCN)NC(=O)[C@@H](N)Cc1ccccc1)C(C)C)C(=O)N[C@H](C(=O)N[C@@H](CO)C(=O)N[C@@H](CCC(N)=O)C(=O)N[C@@H](CC(N)=O)C(=O)N[C@@H](CCCNC(=N)N)C(=O)N[C@@H](CCCNC(=N)N)C(=O)N[C@@H](Cc1ccc(O)cc1)C(=O)N[C@@H](Cc1ccccc1)C(=O)N[C@@H](CC(C)C)C(=O)N[C@@H](Cc1ccccc1)C(=O)N[C@@H](CCCNC(=N)N)C(=O)N1CCC[C@H]1C(=O)N[C@@H](CCCNC(=N)N)C(=O)N[C@@H](CC(N)=O)C(N)=O)C(C)C [porcine NMU-25, FKVDEEFQGPIVSQNRRYFLFRPRN—NH2] | 2150±330 | 3 ± 0.7 | 5.2 ± 0.8 | 1.1 ± 0.2 | – | – | – | – | – | – | – | – | – | – | – | –
2 | FRVDEEFQSPFASQSRGYFLFRPRN-NH2 (also called human neuromedin U-25) [human NMU-25] | – | – | – | – | 2 | 0.25 | ~2 | 8.5 | 4 | 4 | 2.4 | 8.7 | – | – | – | –
3 | YKVNEYQGPVAPSGGFFLFRPRN-NH2 (also: 125I-labelled, residue not given here, Radioligand from NEN, specific activity 2200 Ci/mmole; also called radioiodinated rat NMU-23) [[125I]rat NMU-23] | – | – | – | – | – | – | – | – | – | – | – | – | 0.81 nM and 0.96 nM | 0.61 nM and 0.72 nM | – | –
4 | YKVNEYQGPVAPSGGFFLFRPRN-NH2 (also called rat neuromedin U-23) [rat NMU-23] | – | – | – | – | 0.5 | 0.23 | – | 9 | 2.1 | 2.1 | 5 | 9.4 | – | – | 1.7 nM and 5.1 nM | 0.5
